Test results taken from IntAct's records for PubMed 19732724.

B1: Tensin-3 (Homo sapiens), Q68CZ2 (parent)
chain: MEEGHGLDLTYITERIIAVSFPAGCSEESYLHNLQEVTRMLKSKHGDNYLVLNLSEKRYDLTKLNPKIMDVGWPELHAPPLDKMCTICKAQESWLNSNLQHVVVIHCRGGKGRIGVVISSYMHFTNVSASADQALDRFAMKKFYDDKVSALMQPSQKRYVQFLSGLLSGSVKMNASPLFLHFVILHGTPNFDTGGVCRPFLKLYQAMQPVYTSGIYNVGPENPSRICIVIEPAQLLKGDVMVKCYHKKYRSATRDVIFRLQFHTGAVQGYGLVFGKEDLDNASKDDRFPDYGKVELVFSATPEKIQGSEHLYNDHGVIVDYNTTDPLIRWDSYENLSADGEVLHTQGPVDGSLYAKVRKKSSSDPGIPGGPQAIPATNSPDHSDHTLSVSSDSGHSTASARTDKTEERLAPGTRRGLSAQEKAELDQLLSGFGLEDPGSSLKEMTDARSKYSGTRHVVPAQVHVNGDAALKDRETDILDDEMPHHDLHSVDSLGTLSSSEGPQSAHLGPFTCHKSSQNSLLSDGFGSNVGEDPQGTLVPDLGLGMDGPYERERTFGSREPKQPQPLLRKPSVSAQMQAYGQSSYSTQTWVRQQQMVVAHQYSFAPDGEARLVSRCPADNPGLVQAQPRVPLTPTRGTSSRVAVQRGVGSGPHPPDTQQPSPSKAFKPRFPGDQVVNGAGPELSTGPSPGSPTLDIDQSIEQLNRLILELDPTFEPIPTHMNALGSQANGSVSPDSVGGGLRASSRLPDTGEGPSRATGRQGSSAEQPLGGRLRKLSLGQYDNDAGGQLPFSKCAWGKAGVDYAPNLPPFPSPADVKETMTPGYPQDLDIIDGRILSSKESMCSTPAFPVSPETPYVKTALRHPPFSPPEPPLSSPASQHKGGREPRSCPETLTHAVGMSESPIGPKSTMLRADASSTPSFQQAFASSCTISSNGPGQRRESSSSAERQWVESSPKPMVSLLGSGRPTGSPLSAEFSGTRKDSPVLSCFPPSELQAPFHSHELSLAEPPDSLAPPSSQAFLGFGTAPVGSGLPPEEDLGALLANSHGASPTPSIPLTATGAADNGFLSHNFLTVAPGHSSHHSPGLQGQGVTLPGQPPLPEKKRASEGDRSLGSVSPSSSGFSSPHSGSTISIPFPNVLPDFSKASEAASPLPDSPGDKLVIVKFVQDTSKFWYKADISREQAIAMLKDKEPGSFIVRDSHSFRGAYGLAMKVATPPPSVLQLNKKAGDLANELVRHFLIECTPKGVRLKGCSNEPYFGSLTALVCQHSITPLALPCKLLIPERDPLEEIAESSPQTAANSAAELLKQGAACNVWYLNSVEMESLTGHQAIQKALSITLVQEPPPVSTVVHFKVSAQGITLTDNQRKLFFRRHYPVNSVIFCALDPQDRKWIKDGPSSKVFGFVARKQGSATDNVCHLFAEHDPEQPASAIVNFVSKVMIGSPKKV
partner: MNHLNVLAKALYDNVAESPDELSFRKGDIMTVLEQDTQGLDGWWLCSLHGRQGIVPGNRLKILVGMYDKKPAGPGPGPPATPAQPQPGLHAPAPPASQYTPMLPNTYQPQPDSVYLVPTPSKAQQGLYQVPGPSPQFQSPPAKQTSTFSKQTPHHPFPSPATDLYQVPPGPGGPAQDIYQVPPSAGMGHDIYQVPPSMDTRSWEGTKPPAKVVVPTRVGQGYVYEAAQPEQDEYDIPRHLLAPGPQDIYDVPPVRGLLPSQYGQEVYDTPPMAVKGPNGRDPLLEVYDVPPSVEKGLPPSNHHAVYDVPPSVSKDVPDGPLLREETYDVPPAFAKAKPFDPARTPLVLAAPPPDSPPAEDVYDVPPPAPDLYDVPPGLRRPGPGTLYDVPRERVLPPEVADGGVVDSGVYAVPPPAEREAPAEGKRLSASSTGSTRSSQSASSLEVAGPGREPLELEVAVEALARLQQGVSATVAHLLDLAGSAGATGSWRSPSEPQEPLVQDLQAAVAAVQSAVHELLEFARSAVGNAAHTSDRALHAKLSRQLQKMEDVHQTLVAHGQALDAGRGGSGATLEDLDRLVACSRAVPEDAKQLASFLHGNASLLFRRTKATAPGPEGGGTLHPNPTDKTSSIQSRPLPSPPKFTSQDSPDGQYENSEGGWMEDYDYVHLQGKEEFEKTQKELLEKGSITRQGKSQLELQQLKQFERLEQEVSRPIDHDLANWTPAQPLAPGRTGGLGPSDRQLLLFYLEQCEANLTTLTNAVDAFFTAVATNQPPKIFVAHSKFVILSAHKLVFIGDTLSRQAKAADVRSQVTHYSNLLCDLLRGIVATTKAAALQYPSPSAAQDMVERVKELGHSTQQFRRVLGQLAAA

Variants of: B1
Settings: with bcar1_human BCAR1, P56945

Variant	effect of a mutation on the interaction
Y1173F;Y1206F	decreasing interaction
